Data taken from patent US20200231684A1 (published 2020).
Where two headings read alike, the source gives them in different places.

B1: antibody 89A12 (antibody, V domains shown)
VH: EVQLQQSGAELVRPGASVRLSCTASGFNIKDDYIHWVRQRPKQGLEWLGRIDPANGNTKYDPRFQDKATITADTSSNTAYLHLSSLTSEDTAVYYCAKSFPDNYYSYDDAFAYWGQGTLVTVSA
VL: DIQMTQSPASQSASLGESVTFSCLASQTIGTWLGWYQQKPGKSPQLLIYRATSLADGVPSRFSGSGSGTNFSFKISSLQAEDLASYYCQQLYSGPYTFGGGTKLEIR
notes: Mouse monoclonal from hybridoma; also called 89A12B8
B2: antibody 172C8 (antibody, V domains shown)
VH: EVQLQQSGPELVKPGASVKLSCKASGYTFTDNYMNWVRQSHGKSLEWIGRVNPSNGDTKYNQNFKGKATLTVDKSLSTAYMQLNGLTSEDSAVYYCGRTKNFYSSYSYDDAMDYWGQGTSVTVSS
VL: DIQMTQSPASQSASLGESVTFTCLASQTIGTWLAWYQQRPGKSPQLLIYAATSLADGVPSRFSGSGSGTQFSFNIRSLQAEDFASYYCQQVYTTPLTFGGGTKLEIK
notes: Mouse monoclonal from hybridoma; also called 172C8B12
B3: Antibody C1 (antibody, human IgG1, kappa, L234A L235A, V domains shown)
VH: QVQLQESGPGLVAPSETLSLTCTVSGFSLTDYAVHWIRQFPGKGLEWIGVIWSDGSTDFNAPFKSRVTISKDTSKNQVSFKLSSVTTDDTAVYYCARKGGYSGSWFAYWGQGTLVTVSS
VL: EIVMTQSPATLSVSPGVRATLSCKASQDVGTNVLWYQQKPGQAPRPLIYSASYRHSGIPARFSGSGSGTEFTLTISSLQSEDFAEYYCQQYSRYPLTFGQGTKLEIKR
B4: Antibody C2 (antibody, human IgG1, kappa, L234A L235A, V domains shown)
VH: QVQLQESGPGLVKPSETLSITCTVSGFSLTDYAVHWIRQPPGKGLEWIGVIWSDGSTDYNAPFKSRVTISKDNSKSQVSFKMSSVTADDTAVYYCARKGGYSGSWFAYWGQGTLVTVSS
VL: EIVMTQSPATLSVSPGVRATLSCKASQDVGTNVLWYQQKPGQAPRPLIYSASYRHSGIPDRFSGSGSGTEFTLTISSLQSEDFAVYYCQQYSRYPLTFGQGTKLEIKR
B5: Antibody C3 (antibody, human IgG1, kappa, L234A L235A, V domains shown)
VH: QVQLQESGPGLVAPSETLSLTCTVSGFSLTDYAVHWIRQFPGKGLEWIGVIWSDGSTDFNAPFKSRVTISKDTSKNQVSFKLSSVTTDDTAVYYCARKGGYSGSWFAYWGQGTLVTVSS
VL: EIVMTQSPATLSVSPGVRATLSCKASQDVGTNVLWYQQKPGQAPRPLIYSASYRHSGIPDRFSGSGSGTEFTLTISSLQSEDFAVYYCQQYSRYPLTFGQGTKLEIKR
B6: antibody 76E10 (antibody, V domains shown)
VH: QVQLKESGPVLVAPSQSLSITCTVSGFSLTNYGVHWVRQPPGKGLEWLGVIWPVGSTNYNSALMSRLSIHKDNSKSQVFLRMNSLQTDDTAIYYCAKMDWDDFFDYWGQGTTLTVSS
VL: DIVMTQSQKFMSATVGGRVNITCKASQNVGRAVAWYQQKPGQSPKLLTHSASNRYTGVPDRFTGSGSGTDFTLTITNMQSEDLADYFCQQYSSYPLTFGAGTKLDLK
notes: Mouse monoclonal from hybridoma; also called 76E10E8

Tests used:
human IL-36R on cells [1] = biological target: T1, human IL-36R on cells (human, UniProt Q9HB29 20-575); test: flow cytometry, HEK293 cells transfected with full-length human IL-36R
T1 construct: whole, on cells; also called full-length human IL-36R on HEK293 transfectants; HEK-IL-36R cells
T1 sequence (looked up): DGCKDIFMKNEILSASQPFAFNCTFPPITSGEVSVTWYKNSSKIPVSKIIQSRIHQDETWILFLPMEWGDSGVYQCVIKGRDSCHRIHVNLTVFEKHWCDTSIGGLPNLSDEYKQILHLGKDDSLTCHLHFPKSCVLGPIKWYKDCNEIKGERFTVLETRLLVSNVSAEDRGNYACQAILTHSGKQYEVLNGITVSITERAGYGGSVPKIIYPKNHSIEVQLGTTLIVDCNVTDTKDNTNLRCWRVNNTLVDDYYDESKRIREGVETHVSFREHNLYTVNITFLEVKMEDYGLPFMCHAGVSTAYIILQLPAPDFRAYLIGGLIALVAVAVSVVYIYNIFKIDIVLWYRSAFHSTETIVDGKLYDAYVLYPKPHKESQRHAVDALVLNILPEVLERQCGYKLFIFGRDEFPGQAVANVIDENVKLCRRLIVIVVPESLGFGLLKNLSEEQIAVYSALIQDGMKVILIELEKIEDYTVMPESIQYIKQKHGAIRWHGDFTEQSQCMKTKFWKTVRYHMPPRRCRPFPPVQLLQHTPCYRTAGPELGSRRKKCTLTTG
Experimental: HEK293 cells transfected with full-length human IL-36R or NCI/ADR-RES cells were passaged for 24 hours prior to staining. Cells were removed from flasks by rinsing with 10 ml of 5 mM EDTA in PBS, and then incubated at 37° C. for 10 min with an additional 10 ml of 5 mM EDTA and 2.5 ml of Accumax to declump/disperse cells. Antibodies were then diluted to specified concentrations in PBS+2% BSA, and cells incubated for 20 min at room temperature. Excess antibody was then washed by adding 200 μl of PBS and then centrifuged. Secondary reagent was then added at 50 μl per well and cells are incubated for 15 min at room temperature and then washed as above. Cells were resuspended in 200 μl PBS and analyzed by flow cytometry.

[2] = biological target: cynomolgus IL-36R on BaF/3 cells (cynomolgus, UniProt A0A2K5WSK9 20-558); test: cell-based or functional assay
Chain of cynomolgus IL-36R on BaF/3 cells (A0A2K5WSK9 entry or part of it): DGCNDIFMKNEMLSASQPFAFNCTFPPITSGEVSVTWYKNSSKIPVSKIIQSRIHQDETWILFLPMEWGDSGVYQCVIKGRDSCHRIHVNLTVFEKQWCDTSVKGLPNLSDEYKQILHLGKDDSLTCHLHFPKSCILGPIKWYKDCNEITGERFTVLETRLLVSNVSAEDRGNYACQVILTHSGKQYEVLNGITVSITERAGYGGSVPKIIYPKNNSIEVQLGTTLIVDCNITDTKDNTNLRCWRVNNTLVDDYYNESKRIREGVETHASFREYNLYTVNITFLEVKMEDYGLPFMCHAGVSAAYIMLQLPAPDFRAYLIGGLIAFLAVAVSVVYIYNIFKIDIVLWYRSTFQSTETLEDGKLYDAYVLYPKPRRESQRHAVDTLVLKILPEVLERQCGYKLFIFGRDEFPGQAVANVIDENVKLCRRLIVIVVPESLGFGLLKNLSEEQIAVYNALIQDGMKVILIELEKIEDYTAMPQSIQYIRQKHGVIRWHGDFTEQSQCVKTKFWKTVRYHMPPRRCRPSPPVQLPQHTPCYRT

human IL-36R on cells [3] = biological target: T1, human IL-36R on cells; test: cell-based or functional assay
mouse IL-36R = biological target: T2, mouse IL-36R (mouse, UniProt Q9ERS7 22-338); test: BLI (Fortebio Octet), antibody injected over antigen surface
T2 sequence (looked up): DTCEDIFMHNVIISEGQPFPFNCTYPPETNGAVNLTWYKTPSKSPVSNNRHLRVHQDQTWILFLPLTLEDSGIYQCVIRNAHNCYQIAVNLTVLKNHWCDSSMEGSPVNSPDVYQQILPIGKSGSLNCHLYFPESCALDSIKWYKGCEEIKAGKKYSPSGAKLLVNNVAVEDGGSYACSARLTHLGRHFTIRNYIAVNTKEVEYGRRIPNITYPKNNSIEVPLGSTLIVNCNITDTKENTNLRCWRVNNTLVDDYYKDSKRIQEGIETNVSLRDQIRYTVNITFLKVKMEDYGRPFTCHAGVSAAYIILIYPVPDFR
Experimental: (§1) B) Molecular selectivity over mouse IL-36R and human IL-1R1 The mouse and chimeric anti-IL-36R antibodies were also injected over either a mouse IL-36R or a human IL-1R1 surface at a concentration of 100 nM. The binding signal to mouse IL-36R and to human IL-1R1 for these antibodies measured using the Fortebio Octet (Fortebio, Menlo Park, Calif.) is zero, which indicates these antibodies selectively bind to human IL-36R.

human IL-1R1 = biological target: T3, human IL-1R1 (human, UniProt P14778 18-336, limits assumed); test: as above
T3 construct: also called IL-1RI
T3 sequence (looked up): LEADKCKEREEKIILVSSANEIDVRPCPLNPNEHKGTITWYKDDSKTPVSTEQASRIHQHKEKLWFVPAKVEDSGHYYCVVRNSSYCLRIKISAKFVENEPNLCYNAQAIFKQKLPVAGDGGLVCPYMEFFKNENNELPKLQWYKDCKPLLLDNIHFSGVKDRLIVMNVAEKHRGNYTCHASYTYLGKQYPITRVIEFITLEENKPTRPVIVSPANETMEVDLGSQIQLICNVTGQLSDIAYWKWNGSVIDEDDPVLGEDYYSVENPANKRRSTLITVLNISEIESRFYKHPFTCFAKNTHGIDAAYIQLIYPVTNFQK
Experimental: as §1

[4] = biological target: T4, recombinant human IL-36R (ECD) (human, UniProt Q9HB29 20-332); test: SPR (ProteOn), single IL-36R surface coat concentration
T4 construct: range 20-332; also called IL-1RL2; IL-1Rrp2
T4 sequence (looked up): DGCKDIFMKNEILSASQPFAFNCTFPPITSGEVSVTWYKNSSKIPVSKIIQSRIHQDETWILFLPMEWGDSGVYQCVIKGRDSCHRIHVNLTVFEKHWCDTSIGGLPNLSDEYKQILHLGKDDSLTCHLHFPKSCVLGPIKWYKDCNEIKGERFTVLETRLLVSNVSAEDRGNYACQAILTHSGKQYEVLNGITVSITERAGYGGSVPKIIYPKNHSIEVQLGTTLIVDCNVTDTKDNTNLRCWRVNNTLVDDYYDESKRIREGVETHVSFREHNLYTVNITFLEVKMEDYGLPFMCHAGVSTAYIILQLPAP
Experimental: A) Kinetics and binding affinities of anti-IL-36R antibodies binding to recombinant human IL-36R were measured using the Proteon (Bio-Rad, Hercules, Calif.) using material generated from hybridoma following single column purification. […] Binding of the chimeric anti-IL36R IgGs is equivalent to the respective mouse leads.

human IL-36R on cells [5] = biological target: T1, human IL-36R on cells; test: cell-based or functional assay; remark: listed apart in the source

| Binder | EC50 (human IL-36R on cells [1]) | IC90, pNFκB, BaF/3 cynomolgus IL-36R cells, trun-IL-36a [2] | IC90, pNFκB, BaF/3 cynomolgus IL-36R cells, trun-IL-36b [2] | IC90, pNFκB, BaF/3 cynomolgus IL-36R cells, trun-IL-36g [2] | IC90, pNFκB, NCI/ADR-RES cells, trun-IL-36g (human IL-36R on cells [3]) | binding result (mouse IL-36R) | binding result (human IL-1R1) | Kd [4] | IC90, pNFκB, NCI/ADR-RES cells, trun-IL-36a (human IL-36R on cells [5]) | IC90, pNFκB, NCI/ADR-RES cells, trun-IL-36b (human IL-36R on cells [5]) | IC90, pNFκB, NCI/ADR-RES cells, trun-IL-36g (human IL-36R on cells [5]) |
| --- | --- | --- | --- | --- | --- | --- | --- | --- | --- | --- | --- |
| B1 | 0.609 nM | > 4000 nM | > 333 nM | > 333 nM | 145 nM | no binding (tested: 100 nM) | no binding (tested: 100 nM) | < 0.1 nM |  |  |  |
| B2 |  | > 4000 nM | > 333 nM | > 333 nM | 3.8 nM | no binding (tested: 100 nM) | no binding (tested: 100 nM) | < 0.1 nM |  |  |  |
| B3 |  |  |  |  |  |  |  |  | 4.6 nM | 5.5 nM | 3.4 nM |
| B4 |  |  |  |  |  |  |  |  | 9.7 nM | 8.6 nM | 6.1 nM |
| B5 |  |  |  |  |  |  |  |  | 9.8 nM | 5.6 nM | 5.1 nM |
| B6 | 0.426 nM | > 4000 nM | > 333 nM | > 333 nM | 1.9 nM | no binding (tested: 100 nM) | no binding (tested: 100 nM) | < 0.1 nM |  |  |  |
